Tests used:
[1] = molecular target: ITGA7 mutant P980A on HEK-293T cells (human) (UniProt P05556); assay: high-throughput flow cytometry on HEK-293T cells with the ITGA7 alanine mutant, high stringency, normalized to wild type
[2] = molecular target: ITGA7 mutant S977A on HEK-293T cells (human) (UniProt P05556); assay: as above
Sequence of ITGA7 mutant S977A on HEK-293T cells (human) (chain, as listed by the source S977A S977A, chain 1 of 2): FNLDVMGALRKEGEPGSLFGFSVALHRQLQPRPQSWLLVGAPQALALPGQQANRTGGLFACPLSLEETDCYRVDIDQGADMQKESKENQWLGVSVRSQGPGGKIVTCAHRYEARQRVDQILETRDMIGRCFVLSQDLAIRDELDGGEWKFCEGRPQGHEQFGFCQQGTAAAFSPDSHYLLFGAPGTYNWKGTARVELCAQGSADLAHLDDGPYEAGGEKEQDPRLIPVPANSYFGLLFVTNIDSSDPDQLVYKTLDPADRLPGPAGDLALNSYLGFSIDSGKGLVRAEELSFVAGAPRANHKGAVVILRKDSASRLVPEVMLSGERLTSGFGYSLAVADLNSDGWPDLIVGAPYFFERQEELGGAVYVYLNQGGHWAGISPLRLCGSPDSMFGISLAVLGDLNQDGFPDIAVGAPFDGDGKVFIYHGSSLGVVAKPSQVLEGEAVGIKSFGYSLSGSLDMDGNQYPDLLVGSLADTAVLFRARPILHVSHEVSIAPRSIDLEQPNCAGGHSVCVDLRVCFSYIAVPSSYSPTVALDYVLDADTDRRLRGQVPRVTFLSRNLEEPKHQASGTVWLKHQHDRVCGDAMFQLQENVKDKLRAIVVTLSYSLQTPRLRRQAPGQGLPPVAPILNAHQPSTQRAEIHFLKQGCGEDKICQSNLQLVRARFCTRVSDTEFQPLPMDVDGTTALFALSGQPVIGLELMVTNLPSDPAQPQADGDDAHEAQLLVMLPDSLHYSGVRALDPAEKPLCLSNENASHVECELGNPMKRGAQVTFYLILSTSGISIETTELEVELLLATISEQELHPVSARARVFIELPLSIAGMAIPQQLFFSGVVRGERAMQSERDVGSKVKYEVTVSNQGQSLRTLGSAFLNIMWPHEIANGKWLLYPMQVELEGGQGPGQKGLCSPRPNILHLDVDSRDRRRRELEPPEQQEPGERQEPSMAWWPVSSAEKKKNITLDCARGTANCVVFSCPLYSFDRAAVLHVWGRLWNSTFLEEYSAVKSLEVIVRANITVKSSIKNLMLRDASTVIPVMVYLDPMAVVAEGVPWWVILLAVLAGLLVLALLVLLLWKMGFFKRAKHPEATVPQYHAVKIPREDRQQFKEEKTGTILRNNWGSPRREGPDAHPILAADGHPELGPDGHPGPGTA
Sequence of ITGA7 mutant S977A on HEK-293T cells (human) (P05556 21-798, chain 2 of 2): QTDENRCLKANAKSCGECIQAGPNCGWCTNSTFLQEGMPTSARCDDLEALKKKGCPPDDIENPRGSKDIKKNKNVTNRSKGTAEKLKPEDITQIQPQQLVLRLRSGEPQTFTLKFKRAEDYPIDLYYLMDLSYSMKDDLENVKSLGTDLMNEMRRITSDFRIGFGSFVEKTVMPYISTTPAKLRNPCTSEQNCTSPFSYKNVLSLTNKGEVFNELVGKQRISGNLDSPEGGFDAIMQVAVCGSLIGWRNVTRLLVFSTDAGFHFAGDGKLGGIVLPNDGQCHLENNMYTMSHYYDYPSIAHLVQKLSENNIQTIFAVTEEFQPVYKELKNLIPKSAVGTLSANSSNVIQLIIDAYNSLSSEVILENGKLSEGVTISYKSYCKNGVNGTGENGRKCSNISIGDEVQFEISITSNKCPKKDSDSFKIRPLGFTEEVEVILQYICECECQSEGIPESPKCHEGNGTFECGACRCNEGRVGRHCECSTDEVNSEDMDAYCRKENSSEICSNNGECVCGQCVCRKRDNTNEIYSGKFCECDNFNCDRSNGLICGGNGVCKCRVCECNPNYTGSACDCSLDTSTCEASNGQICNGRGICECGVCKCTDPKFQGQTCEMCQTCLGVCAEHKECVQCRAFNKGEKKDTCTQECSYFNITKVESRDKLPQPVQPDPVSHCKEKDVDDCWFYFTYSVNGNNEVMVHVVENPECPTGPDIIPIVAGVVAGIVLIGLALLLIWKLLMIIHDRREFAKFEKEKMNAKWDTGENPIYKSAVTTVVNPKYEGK

Sequence of ITGA7 mutant P980A on HEK-293T cells (human) (chain, as listed by the source P980A P980A, chain 1 of 2): as the sequence (chain, as listed by the source S977A S977A, chain 1 of 2) above, with A944S, P947A counted along it
Sequence of ITGA7 mutant P980A on HEK-293T cells (human) (P05556 21-798, chain 2 of 2): as the sequence (P05556 21-798, chain 2 of 2) above

B1: VL3VHK20TFT Fab (Fab, V domains shown)
VH: QVQLVQSGAEVKKPGASVKVSCKASGYTFTKYWINWVRQAPGQGLEWMGIIYPGSSTSNYNEKFKTRVTMTVDTSTSTAYMELSSLRSEDTAVYYCVKNDNWGQGTLVTVSS
VL: DIQMTQSPSSLSASVGDRVTITCRASESVDNYGISFMNWFQQKPGKAPKLLIYAASDLGSGVPSRFSGSGSGTDFTLTISSLQPEDFATYYCHQSKEVPYTFGQGTKLEIK
Binding Reactivity (% WT) [1]: 1.1 % WT | Binding Reactivity (% WT) [2]: 8 % WT

— patent US20210147526A1
